The values that follow come from article doi:10.1101/2021.08.28.458007v1.

The term kcat denotes the number of substrate molecules converted per active site and unit of time at saturation.

Substrate in this data set: O=C1O[C@H]([C@@H](O)CO)C(=O)C1=O
Kind of data set: purified protein.

[1] abbreviates: co-substrate GSH (2 mM), 50 mM phosphate pH 6.8, 0.2 mM EDTA.
Where [2] appears, read: co-substrate GSH, 50 mM phosphate pH 6.8, 0.2 mM EDTA.

B1: HsGSTO1-1 (Homo sapiens) (protein)
chain: SGESARSLGKGSAPPGPVPEGSIRIYSMRFCPFAERTRLVLKAKGIRHEVININLKNKPEWFFKKNPFGLVPVLENSQGQLIYESAITCEYLDEAYPGKKLLPDDPYEKACQKMILELFSKVPSLVGSFIRSQNKEDYAGLKEEFRKEFTKLEEVLTNKKTTFFGGNSISMIDYLIWPWFERLEAMKLNECVDHTPKLKLWMAAMKEDPTVSALLTSEKDWQGFLELYLQNSPEACDYGL
In the case of B1, the Km (co-substrate GSH, marked 'This study' (footnote a)) is 138.2 (±27.07) μM.

B2: PgDHAR (Cenchrus americanus) (protein)
chain: MAVEVCVKAAVGAPDILGDCPFSQRVLLTLEEKKITYEMKLVDLSNKPEWFLKISPEGKVPVFNSGDGKWIADSDVITQVIEEKFPTPSLVTPPEYASVGSKIFPSFVKFLKSKDASDGSEKALLDELQALDEHLKAHGPYISGENVSAADLSLGPKLFHLQVALEHFKGWKIPENLTSVHAYTKALFSRESFVKTKPANQYLIAGWAPKVNA
In the case of B2, under setting [1], the Km is 159.2 (±11.4) μM and the kcat is 2271.663 s⁻¹.

B3: PgDHAR (Cenchrus americanus; D19A) (protein)
chain: MAVEVCVKAAVGAPDILGACPFSQRVLLTLEEKKITYEMKLVDLSNKPEWFLKISPEGKVPVFNSGDGKWIADSDVITQVIEEKFPTPSLVTPPEYASVGSKIFPSFVKFLKSKDASDGSEKALLDELQALDEHLKAHGPYISGENVSAADLSLGPKLFHLQVALEHFKGWKIPENLTSVHAYTKALFSRESFVKTKPANQYLIAGWAPKVNA
As to B3, under setting [2], the Km is 245.7 (±75.7) μM and the kcat stood at 20.35 s⁻¹.

B4: PgDHAR (Cenchrus americanus; K8A) (protein)
chain: MAVEVCVAAAVGAPDILGDCPFSQRVLLTLEEKKITYEMKLVDLSNKPEWFLKISPEGKVPVFNSGDGKWIADSDVITQVIEEKFPTPSLVTPPEYASVGSKIFPSFVKFLKSKDASDGSEKALLDELQALDEHLKAHGPYISGENVSAADLSLGPKLFHLQVALEHFKGWKIPENLTSVHAYTKALFSRESFVKTKPANQYLIAGWAPKVNA
Turning to B4, under setting [2], the Km is 1842 (±414.3) μM and the turnover number (kcat) stood at 89.34 s⁻¹.
